In patent US20250059278A1 (SICHUAN HUIYU PHARMACEUTICAL, published 2025):

How the values were obtained:
[1] = target: T1, Monkey CD3 on cynomolgus HSC-F cells (cynomolgus monkey, UniProt Q95LI5 22-198; Q95LI7 23-181; Q95LI8 22-171); assay: flow cytometry on HSC-F cells
T1 construct: whole, on cells; also called Monkey CD3-expressing cynomolgus HSC-F cells; cynomolgus monkey CD3-expressing HSC-F cells

[2] = target: T2, Human CD3εγ recombinant antigen (acrobiosystems, Cat. No. CDG-H52W5) (human, UniProt P07766 23-126; P09693 23-116); assay: SPR chip (Carterra), antibody captured, antigen in flow;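 also: antibodies captured through anti-human IgG Fc at roughly 1000 RU, kinetic constants fitted with a 1:1 binding model in Carterra analysis software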
T2 construct: Bought recombinant protein
Description: Antibodies at three concentrations of 4, 2, and 1 μg/mL were immobilized on the HC200M chip containing anti-human IgG Fc secondary antibody (Xantec, Cat. No.: HC200M), and the antibody binding amount was controlled to approximately 1000RU. […] The kinetic constants were obtained by fitting using the 1:1 binding model of Kinetics software from Carterra.

[3] = target: T3, Human CD3 on Jurkat cells (human, UniProt P07766 23-207; P09693 23-182; P04234 22-171); assay: flow cytometry on Jurkat cells
T3 construct: whole, on cells; also called Human CD3-expressing Jurkat cells; Jurkat (naturally expressing human CD3)

Binder	binding result [1]	Kd [2] [nM]	koff [2] [s⁻¹]	kon [2] [M⁻¹ s⁻¹]	EC50 [3] [nM]	EC50 [1] [nM]
Positive control antibody OKT3 (antibody, V domains shown) VH: not shown VL: QIVLTQSPAIMSASPGEKVTMTCSASSSVSYMNWYQQKSGTSPKRWIYDTSKLASGVPAHFRGSGSGTSYSLTISGMEAEDAATYYCQQWSSNPFTFGSGTKLEI	no binding (tested: 2 µg/ml starting concentration)					
CD3 monoclonal antibody M28 (antibody, human IgG1, lambda, V domains shown, IgG: VH28 + IgG1 mutant CH, VL-1 + CL) VH: EVQLVESGGGLVQPGGSLRLSCAASGFTFNTYAMNWVRQAPGKGLEWVARIRSKYNNYATYYADSVKDRFTISRDDSKSILYLQMNSLKTEDTAMYYCVRHHNFGNSYVSWFAYWGQGTLVTVSS VL: not shown		2.53	0.00237	938000	0.854	0.287
Control antibody 1 (antibody, V domains shown, also called positive control antibody 1) VH: EVQLVESGGGLVQPKGSLKLSCAASGFTFNTYAMNWVRQAPGKGLEWVARIRSKYNNYATYYADSVKDRFTISRDDSQSILYLQMNNLKTEDTAMYYCVRHGNFGNSYVSWFAYWGQGTLVTVSA VL: QAVVTQESALTTSPGETVTLTCRSSTGAVTTSNYANWVQEKPDHLFTGLIGGTNKRAPGVPARFSGSLIGDKAALTITGAQTEDEAIYFCALWYSNLWVFGGGTKLTVL					0.473	0.487
CD3 monoclonal antibody M5 (antibody, human IgG1, lambda, V domains shown, IgG: VH5 + IgG1 mutant CH, VL-1 + CL) VH: EVQLVESGGGLVQPGGSLRLSCAASGFTFNTYAMNWVRQAPGKGLEWVARIRSKYNNYATYYADSVKDRFTISRDDSKSILYLQMNSLKTEDTAVYYCVRHGNFKNSYVSWFAYWGQGTLVTVSS VL: not shown		5.84	0.0101	1.74e+06	0.154	0.152
CD3 monoclonal antibody M15 (antibody, human IgG1, lambda, V domains shown, IgG: VH15 + IgG1 mutant CH, VL-1 + CL) VH: EVQLVESGGGLVQPGGSLRLSCAASGFTFNTYAMNWVRQAPGKGLEWVARIRSKYNNYATYYADSVKDRFTISRDDSKSSLYLQMNSLKTEDTAMYYCVRHGDPGNSYVSWFAYWGQGTLVTVSS VL: not shown		160			0.166	0.118
CD3 monoclonal antibody M2 (antibody, human IgG1, lambda, V domains shown, IgG: VH2 + IgG1 mutant CH, VL-1 + CL) VH: EVQLVESGGGLVQPGGSLRLSCAASGFTFNTYAMNWVRQAPGKGLEWVARIRSKYNNYATYYADSVKGRFTISRDDSKSSLYLQMNSLKTEDTAMYYCVRAKNFGNSYVSWFAYWGQGTLVTVSS VL: not shown		6.6	0.00363	550000	0.214	0.225
CD3 monoclonal antibody M17 (antibody, human IgG1, lambda, V domains shown, IgG: VH17 + IgG1 mutant CH, VL-1 + CL) VH: EVQLVESGGGLVQPGGSLRLSCAASGFTFNTYAMNWVRQAPGKGLEWVARIRSKYNNYATYYADSVKDRFTISRDDSKSILYLQMNSLKTEDTAMYYCVRHGNFWNSYVSWFASWGQGTLVTVSS VL: not shown		2.52	0.00108	429000	0.181	0.21
CD3 monoclonal antibody M14 (antibody, human IgG1, lambda, V domains shown, IgG: VH14 + IgG1 mutant CH, VL-1 + CL) VH: EVQLVESGGGLVQPGGSLRLSCAASGFTFNTYAMNWVRQAPGKGLEWVARIRSKYNNYATYYADSVKDRFTISRDDSKSSLYLQMNSLKTEDTAMYYCVRHSNFGNSYVSWFEYWGQGTLVTVSS VL: not shown		0.624	0.00128	2.05e+06	1.51	0.271
CD3 monoclonal antibody M18 (antibody, human IgG1, lambda, V domains shown, IgG: VH18 + IgG1 mutant CH, VL-1 + CL) VH: EVQLVESGGGLVQPGGSLRLSCAASGFTFNTYAMNWVRQAPGKGLEWVARIRSKYNNYATYYADSVKDRFTISRDDSKSSLYLQMNSLKTEDTAMYYCVRAGNFGNSYVNWFAYWGQGTLVTVSS VL: not shown		179			0.515	0.841
CD3 monoclonal antibody M11 (antibody, human IgG1, lambda, V domains shown, IgG: VH11 + IgG1 mutant CH, VL-1 + CL) VH: EVQLVESGGGLVQPGGSLRLSCAASGFTFNTYAMNWVRQAPGKGLEWVARIRSKYNNYATYYADSVKDRFTISRDDSKSSLYLQMNSLKTEDTAVYYCVRHSNFVNSYVSWFAYWGQGTLVTVSS VL: not shown		2.95	0.00677	2.3e+06	0.13	0.169
CD3 monoclonal antibody M7 (antibody, human IgG1, lambda, V domains shown, IgG: VH7 + IgG1 mutant CH, VL-1 + CL) VH: EVQLVESGGGLVQPGGSLRLSCAASGFTFNTYAMNWVRQAPGKGLEWVARIRSKYNNYATYYADSVKDRFTISRDDSKSSLYLQMNNLKTEDTAMYYCVRAGNFGNSYVSWFEYWGQGTLVTVSS VL: not shown		2.39	0.0011	460000	1.71	0.69
CD3 monoclonal antibody M12 (antibody, human IgG1, lambda, V domains shown, IgG: VH12 + IgG1 mutant CH, VL-1 + CL) VH: EVQLVESGGGLVQPGGSLRLSCAASGFTFNTYAMNWVRQAPGKGLEWVARIRSKYNNYATYYADSVKGRFTISRDDSKSSLYLQMNNLKTEDTAMYYCVRHSNFPNSYVSWFAYWGQGTLVTVSS VL: not shown		1.93	0.00768	3.97e+06	0.27	0.162
CD3 monoclonal antibody M3 (antibody, human IgG1, lambda, V domains shown, IgG: VH3 + IgG1 mutant CH, VL-1 + CL) VH: EVQLVESGGGLVQPGGSLRLSCAASGFTFNTYAMNWVRQAPGKGLEWVARIRSKYNNYATYYADSVKDRFTISRDDSKSILYLQMNSLKTEDTAMYYCVRHGNFGNSYVSWFEYWGQGTLVTVSS VL: not shown		1.36	0.0015	1.1e+06	0.261	0.315
CD3 monoclonal antibody M8 (antibody, human IgG1, lambda, V domains shown, IgG: VH8 + IgG1 mutant CH, VL-1 + CL) VH: EVQLVESGGGLVQPGGSLRLSCAASGFTFNTYAMNWVRQAPGKGLEWVARIRSKYNNYATYYADSVKDRFTISRDDSKSSLYLQMNNLKTEDTAMYYCVRHGNFGNTYVSWFAMWGQGTLVTVSS VL: not shown		5.16	0.0032	620000	0.268	0.186
CD3 monoclonal antibody M16 (antibody, human IgG1, lambda, V domains shown, IgG: VH16 + IgG1 mutant CH, VL-1 + CL) VH: EVQLVESGGGLVQPGGSLRLSCAASGFTFNTYAMNWVRQAPGKGLEWVARIRSKYNNYATYYADSVKGRFTISRDDSKSILYLQMNSLKTEDTAVYYCVRHGNFGNSYVSWFQYWGQGTLVTVSS VL: not shown		2.02	0.00188	929000	0.477	0.162
CD3 monoclonal antibody M10 (antibody, human IgG1, lambda, V domains shown, IgG: VH10 + IgG1 mutant CH, VL-1 + CL) VH: EVQLVESGGGLVQPGGSLRLSCAASGFTFNTYAMNWVRQAPGKGLEWVARIRSKYNNYATYYADSVKDRFTISRDDSKSSLYLQMNSLKTEDTAVYYCVRHSNFRNSYVSWFAYWGQGTLVTVSS VL: not shown		2.15	0.00653	3.04e+06	1.23	0.194
CD3 monoclonal antibody M9 (antibody, human IgG1, lambda, V domains shown, IgG: VH9 + IgG1 mutant CH, VL-1 + CL) VH: EVQLVESGGGLVQPGGSLRLSCAASGFTFNTYAMNWVRQAPGKGLEWVARIRSKYNNYATYYADSVKGRFTISRDDSKSILYLQMNSLKTEDTAMYYCVRHGNFGNSYVSWFKYWGQGTLVTVSS VL: not shown		1.92	0.0025	1.3e+06	1.51	0.237
CD3 monoclonal antibody M4 (antibody, human IgG1, lambda, V domains shown, IgG: VH4 + IgG1 mutant CH, VL-1 + CL) VH: EVQLVESGGGLVQPGGSLRLSCAASGFTFNTYAMNWVRQAPGKGLEWVARIRSKYNNYATYYADSVKDRFTISRDDSKSILYLQMNNLKTEDTAVYYCVRHGNFQNSYVSWFQYWGQGTLVTVSS VL: not shown		3.4	0.00517	1.52e+06	0.402	0.434
CD3 monoclonal antibody M1 (antibody, human IgG1, lambda, V domains shown, IgG: VH1 + IgG1 mutant CH, VL-1 + CL) VH: EVQLVESGGGLVQPGGSLRLSCAASGFTFNTYAMNWVRQAPGKGLEWVARIRSKYNNYATYYADSVKGRFTISRDDSKSILYLQMNNLKTEDTAMYYCVRHANFLNSYVSWFAYWGQGTLVTVSS VL: not shown		2.57	0.0105	4.09e+06	0.581	0.117
CD3 monoclonal antibody M6 (antibody, human IgG1, lambda, V domains shown, IgG: VH6 + IgG1 mutant CH, VL-1 + CL) VH: EVQLVESGGGLVQPGGSLRLSCAASGFTFNTYAMNWVRQAPGKGLEWVARIRSKYNNYATYYADSVKGRFTISRDDSKSSLYLQMNSLKTEDTAMYYCVRHGNFYNSYVSWFAHWGQGTLVTVSS VL: not shown		3.63	0.00354	973000	0.169	0.172
CD3 monoclonal antibody M13 (antibody, human IgG1, lambda, V domains shown, IgG: VH13 + IgG1 mutant CH, VL-1 + CL) VH: EVQLVESGGGLVQPGGSLRLSCAASGFTFNTYAMNWVRQAPGKGLEWVARIRSKYNNYATYYADSVKGRFTISRDDSKSSLYLQMNSLKTEDTAVYYCVRHGNFKNSYGSWFAYWGQGTLVTVSS VL: not shown		3.33	0.00045	135000	0.832	0.276
